Laboratory results reported in publication PMC3155531, “In Vitro and Ex Vivo Analysis of CHRNA3 and CHRNA5 Haplotype Expression”.

Molecular target: SP-1 (rhSP-1) (Homo sapiens, UniProt P08047 2-785)
Test: EMSA; 300 ng rhSP-1, 125 fmol probe; competed by 50x/100x cold probe; Promega Gel Shift Assay System (binding buffer, salt and pH not given); 10 min preincubation then 20 min with probe at 25 C; 4% non-denaturing PAGE
Settings: protein: recombinant; label: 32P 5' end; blunt

Chain of SP-1 (rhSP-1) (P08047 2-785): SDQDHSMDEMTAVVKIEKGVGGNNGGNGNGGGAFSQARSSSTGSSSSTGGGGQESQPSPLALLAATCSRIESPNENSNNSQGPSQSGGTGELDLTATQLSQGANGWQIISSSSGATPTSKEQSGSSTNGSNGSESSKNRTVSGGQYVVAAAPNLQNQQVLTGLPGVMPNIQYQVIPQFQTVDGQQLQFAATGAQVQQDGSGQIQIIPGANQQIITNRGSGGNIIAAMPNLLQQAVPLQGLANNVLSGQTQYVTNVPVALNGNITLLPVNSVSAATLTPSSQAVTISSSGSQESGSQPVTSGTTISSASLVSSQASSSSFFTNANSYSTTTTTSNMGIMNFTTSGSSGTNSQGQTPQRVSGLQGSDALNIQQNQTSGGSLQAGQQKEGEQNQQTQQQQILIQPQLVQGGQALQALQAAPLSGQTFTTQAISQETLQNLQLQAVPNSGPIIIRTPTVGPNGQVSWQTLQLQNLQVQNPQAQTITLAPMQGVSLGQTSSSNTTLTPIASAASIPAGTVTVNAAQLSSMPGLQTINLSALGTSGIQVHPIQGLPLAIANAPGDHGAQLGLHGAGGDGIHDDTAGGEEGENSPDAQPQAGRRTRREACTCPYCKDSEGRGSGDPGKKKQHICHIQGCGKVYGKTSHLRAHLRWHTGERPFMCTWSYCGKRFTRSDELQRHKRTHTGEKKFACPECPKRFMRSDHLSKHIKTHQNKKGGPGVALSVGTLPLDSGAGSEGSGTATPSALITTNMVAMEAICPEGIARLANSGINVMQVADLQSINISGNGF

B1: dsA5pInDel (CHRNA5 promoter rs3841324 region) (dsDNA)
DNA 1: GATTGGGCGGGGCCAGAGGGAAATAGGGG
DNA 2: CCCCTATTTCCCTCTGGCCCCGCCCAATC
B1: binds.
